Results published in US20120058906A1 (published 2012).

Legend:
[1] = target: T1, rHuman IGF-1 sR (insulin-like growth factor-1 soluble receptor), CF (R&D Systems Cat#391-GR) (human, UniProt P08069 31-932); experiment: ECL (MSD multi-spot), antigen on plate, Fab 2 nM
T1 construct: Bought soluble receptor; also called IGF-R1

[2] = target: T2, rHuman P-Cadherin/Fc Chimera, CF (R&D Systems Cat#861-PC) (human, UniProt P22223 108-654); experiment: ECL (MSD multi-spot), antigen on plate, Fab 2 nM
T2 construct: Bought Fc chimera; also called CDH3; not shown: Fc of the bought chimera

[3] = target: T3, rHuman Erythropoietin R/Fc Chimera, CF (R&D Systems Cat#963-ER) (human, UniProt P19235 25-250); experiment: ECL (MSD multi-spot), antigen on plate, Fab 2 nM
T3 construct: Bought Fc chimera; also called EPO R/Fc; Epo R; not shown: Fc of the bought chimera
T3 sequence: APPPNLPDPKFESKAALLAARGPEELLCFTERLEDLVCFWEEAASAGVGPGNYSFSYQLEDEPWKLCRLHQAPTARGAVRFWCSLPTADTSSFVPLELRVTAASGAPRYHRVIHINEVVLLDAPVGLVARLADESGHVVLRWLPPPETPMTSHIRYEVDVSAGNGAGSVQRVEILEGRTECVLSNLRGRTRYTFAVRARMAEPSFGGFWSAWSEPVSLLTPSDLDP

[4] = target: T4, Recombinant Human DLL4 (R&D Systems Cat#1506-D4/CF) (human, UniProt Q9NR61 27-524); experiment: ECL (MSD multi-spot), antigen on plate, Fab 2 nM
T4 construct: Bought recombinant protein; also called delta-like protein 4

[5] = target: T5, rHuman ErbB2/Fc Chimera, CF (R&D Systems Cat#1129-ER) (human, UniProt P04626 23-652); experiment: ECL (MSD multi-spot), antigen on plate, Fab 2 nM
T5 construct: Bought Fc chimera; also called HER2/neu; not shown: Fc of the bought chimera

[6] = target: T6, rHuman EGF R/Fc Chimera, CF (R&D Systems Cat#344-ER) (human, UniProt P00533 25-645); experiment: ECL (MSD multi-spot), antigen on plate, Fab 2 nM
T6 construct: Bought Fc chimera; also called ErbB-1; not shown: Fc of the bought chimera

[7] = target: T7, rHuman HGF R/c-MET/Fc Chimera, CF (R&D Systems Cat#358-MT/CF) (human, UniProt P08581 25-932); experiment: ECL (MSD multi-spot), antigen on plate, Fab 2 nM
T7 construct: Bought Fc chimera; also called HGF R/Fc; not shown: Fc of the bought chimera

[8] = target: T8, rHuman Notch-1/Fc Chimera, CF (R&D Systems Cat#3647-TK) (human, UniProt P46531 19-526); experiment: ECL (MSD multi-spot), antigen on plate, Fab 2 nM
T8 construct: Bought Fc chimera; not shown: Fc of the bought chimera

[9] = target: T9, rHuman CD44/Fc Chimera, CF (R&D Systems Cat#3660-CD) (human, UniProt P16070 21-220); experiment: ECL (MSD multi-spot), antigen on plate, Fab 2 nM
T9 construct: Bought Fc chimera; not shown: Fc of the bought chimera

[10] = target: T1, rHuman IGF-1 sR (insulin-like growth …); experiment: ECL (MSD multi-spot), antigen on plate, Fab 10 nM
[11] = target: T2, rHuman P-Cadherin/Fc Chimera, CF (R&D …); experiment: ECL (MSD multi-spot), antigen on plate, Fab 10 nM
[12] = target: T3, rHuman Erythropoietin R/Fc Chimera, CF …; experiment: ECL (MSD multi-spot), antigen on plate, Fab 10 nM
[13] = target: T4, Recombinant Human DLL4 (R&D Systems …); experiment: ECL (MSD multi-spot), antigen on plate, Fab 10 nM
[14] = target: T5, rHuman ErbB2/Fc Chimera, CF (R&D …); experiment: ECL (MSD multi-spot), antigen on plate, Fab 10 nM
[15] = target: T6, rHuman EGF R/Fc Chimera, CF (R&D …); experiment: ECL (MSD multi-spot), antigen on plate, Fab 10 nM
[16] = target: T7, rHuman HGF R/c-MET/Fc Chimera, CF (R&D …); experiment: ECL (MSD multi-spot), antigen on plate, Fab 10 nM
[17] = target: T8, rHuman Notch-1/Fc Chimera, CF (R&D …); experiment: ECL (MSD multi-spot), antigen on plate, Fab 10 nM
[18] = target: T9, rHuman CD44/Fc Chimera, CF (R&D Systems …); experiment: ECL (MSD multi-spot), antigen on plate, Fab 10 nM
[19] = target: T10, Recombinant Human DLL4 (R&D Systems Cat#1506-D4/CF) (human, UniProt Q9NR61 27-524); experiment: ECL (MSD Multi-Spot) binding assay, antigen spotted on plate; Fab 7.5 nM; blank spot 217
T10 construct: Bought recombinant protein; also called delta-like protein 4; rHuman DLL4

[20] = target: T11, rHuman IGF-1 sR (IGF-1 sR), CF (R&D Systems Cat#391-GR) (human, UniProt P08069 31-932); experiment: ECL (MSD multi-spot), antigen spotted on plate; Fab 88.1 nM; blank spot 301
T11 construct: Bought soluble receptor; also called insulin-like growth factor-1 soluble receptor; IGF-R1
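Also: blank spot per well as comparator with Hit at signal to blank ratio of 4 or more.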

B1: Fab VH1-46_IGHD6-6*01_IGHJ1*01_S102A_S103P_S104F & L6_IGKJ1*01_S28P (Fab, V domains shown)
VH: QVQLVQSGAEVKKPGASVKVSCKASGYTFTSYYMHWVRQAPGQGLEWMGIINPSGGSTSYAQKFQGRVTMTRDTSTSTVYMELSSLRSEDTAVYYCAREEYAPFSAEYFQHWGQGTLVTVSS
VL: EIVLTQSPATLSLSPGERATLSCRASQPVSSYLAWYQQKPGQAPRLLIYDASNRATGIPARFSGSGSGTDFTLTISSLEPEDFAVYYCQQRSNWPPWTFGQGTKVEIKR
notes: Fab
Question: With B1 as the binder, how does the ECL signal [1] read?
Answer: Its ECL signal is 205 ECL signal.

Question: And the ECL signal [2]?
Answer: Its ECL signal is 223 ECL signal.

Question: What about the ECL signal [3] of the same binder?
Answer: Its ECL signal is 251 ECL signal.

Question: And the ECL signal [4]?
Answer: Its ECL signal is 6100 ECL signal.

Question: And the ECL signal [5]?
Answer: The ECL signal was 176 ECL signal.

Question: What about the ECL signal [6] of the same binder?
Answer: Its ECL signal is 352 ECL signal.

Question: What about the ECL signal [7] of the same binder?
Answer: Its ECL signal is 255 ECL signal.

Question: And the ECL signal [8]?
Answer: Its ECL signal is 307 ECL signal.

Question: What about the ECL signal [9] of the same binder?
Answer: The ECL signal was 266 ECL signal.

Question: What about the ECL signal [10] of the same binder?
Answer: Its ECL signal is 152 ECL signal.

Question: What about the ECL signal [11] of the same binder?
Answer: Its ECL signal is 216 ECL signal.

Question: And the ECL signal [12]?
Answer: The ECL signal was 392 ECL signal.

Question: And the ECL signal [13]?
Answer: The ECL signal was 26900 ECL signal.

Question: What about the ECL signal [14] of the same binder?
Answer: The ECL signal was 136 ECL signal.

Question: And the ECL signal [15]?
Answer: The ECL signal was 207 ECL signal.

Question: What about the ECL signal [16] of the same binder?
Answer: Its ECL signal is 136 ECL signal.

Question: What about the ECL signal [17] of the same binder?
Answer: The ECL signal was 280 ECL signal.

Question: And the ECL signal [18]?
Answer: The ECL signal was 212 ECL signal.

B2: Fab VH6-1_IGHD3-3*01_IGHJ4*01 & V4-3_IGLJ4*01 (Fab, V domains shown)
VH: QVQLQQSGPGLVKPSQTLSLTCAISGDSVSSNSAAWNWIRQSPSRGLEWLGRTYYRSKWYNDYAVSVKSRITINPDTSKNQFSLQLNSVTPEDTAVYYCAREYYDFWSGYYTDYFDYWGQGTLVTVSS
VL: QPVLTQPTSLSASPGASARLTCTLRSGINLGSYRIFWYQQKPESPPRYLLSYYSDSSKHQGSGVPSRFSGSKDASSNAGILVISGLQSEDEADYYCMIWHSSASFVFGGGTQLIIL
notes: Tested as a Fab made in E. coli; also called IGHV6-1*01
Question: With B2 as the binder, how does the ECL signal [19] read?
Answer: Its ECL signal is 598.

B3: Fab VH1-46_IGHD3-10*01_IGHJ4*01 & B3_IGKJ1*01 (Fab, V domains shown)
VH: QVQLVQSGAEVKKPGASVKVSCKASGYTFTSYYMHWVRQAPGQGLEWMGIINPSGGSTSYAQKFQGRVTMTRDTSTSTVYMELSSLRSEDTAVYYCAREYYYGSGSYYNDYFDYWGQGTLVTVSS
VL: not shown
notes: also called IGHV1-46*01
Question: With B3 as the binder, how does the ECL signal [20] read?
Answer: Its ECL signal is 273.
